Measurements: patent publication US20160185837A1 (Medimmune Limited, priority 2013, published 2016)

T1: human GIP receptor (hGIPr) (Homo sapiens, UniProt P48546)
T1 construct: expressed in transfected cells
T1 sequence (P48546 22-466): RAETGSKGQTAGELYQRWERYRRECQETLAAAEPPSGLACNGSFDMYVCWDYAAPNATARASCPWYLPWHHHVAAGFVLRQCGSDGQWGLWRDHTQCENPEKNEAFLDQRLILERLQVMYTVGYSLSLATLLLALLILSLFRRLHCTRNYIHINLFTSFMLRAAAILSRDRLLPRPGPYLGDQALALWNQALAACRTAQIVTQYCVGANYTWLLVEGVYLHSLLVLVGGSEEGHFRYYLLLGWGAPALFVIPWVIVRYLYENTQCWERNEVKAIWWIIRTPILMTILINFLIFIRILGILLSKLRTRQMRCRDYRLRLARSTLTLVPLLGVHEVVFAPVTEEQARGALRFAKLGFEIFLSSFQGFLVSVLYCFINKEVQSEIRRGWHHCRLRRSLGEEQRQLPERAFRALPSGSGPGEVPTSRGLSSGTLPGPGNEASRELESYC


Legend:
[1] = molecular target: T2, human GLP-1 receptor (hGLP-1r) (Homo sapiens, UniProt P43220); experiment: BSA-cAMP assay, cells expressing human GLP-1 receptor; assay type: cell-based; settings: BSA-cAMP assay; batch 1 unless a batch is given; read-out: cAMP activity hGLP1r (EC50)
T2 construct: expressed in transfected cells
Procedure: (§1) One basic cAMP assays was performed, differing in the medium used for the assay, the “BSA-cAMP assay”:
(§2) BSA-based assay medium: 0.1% bovine serum albumin (BSA) in
(§3) In certain aspects, the assay can also be carried out in medium supplemented with serum albumin that corresponds to the receptor being tested, e.g., human serum albumin for testing cAMP activity at hGIPr or hGLP-1r, rat serum albumin for testing cAMP activity at rGIPr or rGLP-1r, and so on. […] All sample dilutions were made in duplicate.
(§4) A frozen cryo-vial of cells expressing the receptor of interest was thawed rapidly in a water-bath, transferred to pre-warmed assay media and spun at 240×g for 5 minutes. Cells were re-suspended in assay buffer at an optimized concentration (e.g., hGLP-1r and hGIPr cells at 0.5×10^5 cells/ml).
(§5) To this, 5 μL cell suspension was added and the plates incubated at room temperature for 30 minutes.
(§6) cAMP levels were measured using a commercially available cAMP dynamic 2 HTRF kit (Cisbio, Cat #62AM4PEJ), following the two step protocol as per manufacturer's recommendations. In brief; anti-cAMP cryptate (donor fluorophore) and cAMP-d2 (acceptor fluorophore) were made up separately by diluting each 1/20 in conjugate & lysis buffer provided in the kit. 5 μL anti-cAMP cryptate was added to all wells of the assay plate, and 5 μL cAMP-d2 added to all wells except non-specific binding (NSB) wells, to which conjugate and lysis buffer was added. […] Data was transformed to % Delta F as described in manufacturer's guidelines and then transformed to percent activation of maximal native agonist response and analysed by 4-parameter logistic fit to determine EC50 values.
(§7) We used unconstrained 4 parameter logistic fit of data, curve mid-point to determine EC50. This was tested on two occasions, not two batches.

[2] = molecular target: T1, human GIP receptor (hGIPr); experiment: BSA-cAMP assay, cells expressing human GIP receptor; assay type: cell-based; settings: BSA-cAMP assay; batch 1 unless a batch is given; read-out: cAMP activity hGIPr (EC50)
Procedure: For human GIPr, two different lines were used, shown as “hGIPr” and “hGIPr (C3)” in Table 11.
as §1, §2, §3, §4, §5, §6, §7

T2 sequence (P43220 24-463): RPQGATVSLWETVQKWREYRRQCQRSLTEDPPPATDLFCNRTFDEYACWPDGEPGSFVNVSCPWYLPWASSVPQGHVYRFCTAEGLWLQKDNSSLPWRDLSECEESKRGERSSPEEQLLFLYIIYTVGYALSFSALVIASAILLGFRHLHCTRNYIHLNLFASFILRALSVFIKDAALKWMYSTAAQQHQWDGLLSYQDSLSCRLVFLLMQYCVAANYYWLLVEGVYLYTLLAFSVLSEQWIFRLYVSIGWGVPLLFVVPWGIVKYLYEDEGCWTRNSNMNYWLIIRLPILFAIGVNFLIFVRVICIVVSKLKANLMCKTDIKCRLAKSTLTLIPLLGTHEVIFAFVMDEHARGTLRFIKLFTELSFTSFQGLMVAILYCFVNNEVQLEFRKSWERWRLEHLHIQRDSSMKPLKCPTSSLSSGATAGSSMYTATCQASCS

Molecule	EC50 [1]	EC50 [2]
IP132 (protein, /note=“Description of Artificial Sequence Synthetic Peptide-linker-hinge polypeptide”) HGEGTFTSDVSSYLEGQAAKEFIAWLVKGGGGGGSGGGGSGGGGSGGGGSATHTCPPCPAPEF	0.04 nM	81 nM
IP191 (protein, /note=“Description of Artificial Sequence Synthetic Peptide-linker-hinge polypeptide”) HGEGTFTSDVSSYLEGQAAKEFIAWLVKGAAAGGSGSTASSGSGSATGGGGAATYTCPPCPAPEF	0.057 nM	–
IP192 (protein, /note=“Description of Artificial Sequence Synthetic Peptide-linker-hinge polypeptide”) HGEGTFTSDVSSYLEGQAAKEFIAWLVKGAAAGGSGSTASSGSGSATGGGGAATSTCPPCPAPEF	0.043 nM	–
IP187 (protein, /note=“Description of Artificial Sequence Synthetic Peptide-linker-hinge polypeptide”) HGEGTFTSDVSSYLEGQAAKEFIAWLVKGAPPGGGGGSGGGGSGGGGSGGGGSATHTCPPCPAPEF	0.037 nM	540 nM
IP194 (protein, /note=“Description of Artificial Sequence Synthetic Peptide-linker-hinge polypeptide”) HGEGTFTSDVSSYLEGQAAKEFIAWLVKGAAAGGSGSTASSGSGSATGGGGPPCPPCPAPEF	0.061 nM	–
IP150: isolated polypeptide named in b21; sequence stands in a table not shown here (protein, /note=“Description of Artificial Sequence Synthetic Peptide-linker-hinge polypeptide”) YSEGTFTSDVSSYLEGQAAKEFIAWLVAGGAPPGGSGSTASSGSGSATGGGGAATHTCPPCPAPEF	0.033 nM	16 nM
IP174: isolated polypeptide named in b21; sequence stands in a table not shown here (protein, /note=“Description of Artificial Sequence Synthetic Peptide-linker-hinge polypeptide”) HGEGTFTSDVSSYLEEEAAKEFIAWLVAGGAAAGGSGSTASSGSGSATGGGGAATHTCPPCPAPEF	0.032 nM	460 nM
IP173: isolated polypeptide named in b21; sequence stands in a table not shown here (protein, /note=“Description of Artificial Sequence Synthetic Peptide-linker-hinge polypeptide”) YSEGTFTSDVSSYLEEQAAKEFIAWLLAGAAAGGSGSTASSGSGSATGGGGAATHTCPPCPAPEF	0.23 nM	1.2 nM
IP171: Fc fusion, IgG1-TM, SEQ ID NO:142; agonist peptide YSEGTFTSDVSSYMERQAISEFIAWLLAG (protein, also: Fc fusion, IgG1-TM, agonist peptide YSEGTFTSDVSSYMERQAISEFIAWLLAG) YSEGTFTSDVSSYMERQAISEFIAWLLAGAAAGGSGSTASSGSGSATGGGGAATHTCPPCPAPEF	0.53 nM	0.39 nM
IP176: Fc fusion, IgG1-TM, SEQ ID NO:143; agonist peptide YSEGTFTSDVSSYMERQAISEFIAWLLKGP (protein, also: Fc fusion, IgG1-TM, agonist peptide YSEGTFTSDVSSYMERQAISEFIAWLLKGP) YSEGTFTSDVSSYMERQAISEFIAWLLKGPAAAGGSGSTASSGSGSATGGGGAATHTCPPCPAPEF	0.6 nM	0.42 nM

Next, values leading:

EC50 [1]	EC50 [2]	Molecule
0.061 nM	–	IP195 (protein, /note=“Description of Artificial Sequence Synthetic Peptide-linker-hinge polypeptide”) HGEGTFTSDVSSYLEGQAAKEFIAWLVKGAAAGGSGSTASSGSGSATGGGGESKYGPPCPPCPAPEF
0.78 nM	0.18 nM	IP197 (protein, /note=“Description of Artificial Sequence Synthetic Peptide-linker-hinge polypeptide”) YSEGTFTSDVSSYMERQAIDEFIAWLLAGAAAGGSGSTASSGSGSATGGGGAATHTCPPCPAPEF
0.056 nM	> 15000 nM	IP230 (protein, /note=“Description of Artificial Sequence Synthetic Peptide-linker-hinge polypeptide”) HGEGTFTSDVSSYLEGQAAKEFIAWLVKGAAAGGSGSTASSGSGSATGGGGAATHTCPPCPAPEF
1.6 nM	17 nM	IP208: isolated polypeptide named in b21; sequence stands in a table not shown here (protein, /note=“Description of Artificial Sequence Synthetic Peptide-linker-hinge polypeptide”) YSEGTFTSDVSSYLEGQAAKEFIAWLLAGAAAGGSGSTASSGSGSATGGGGAATHTCPPCPAPEF
0.036 nM	–	IP233 (protein, /note=“Description of Artificial Sequence Synthetic Peptide-linker-hinge polypeptide”) HGEGTFTSDVSSYLEEQAAKEFIAWLVKGAAAGGSGSTASSGSGSATGGGGAATHTCPPCPAPEF
0.069 nM	–	IP199: isolated polypeptide named in b21; sequence stands in a table not shown here (protein, /note=“Description of Artificial Sequence Synthetic Peptide-linker-hinge polypeptide”) HGEGTFTSDVSSYLEGQAAKEFIAWLLAGAAAGGSGSTASSGSGSATGGGGAATHTCPPCPAPEF
48 nM	–	IP227 (protein, /note=“Description of Artificial Sequence Synthetic Peptide-linker-hinge polypeptide”) YSEGTFTSDVSSYMERQAIDEFVNDLLKGGAAAGGSGSTASSGSGSATGGGGAATHTCPPCPAPEF
0.57 nM	0.35 nM	IP224 (protein, /note=“Description of Artificial Sequence Synthetic Peptide-linker-hinge polypeptide”) YSEGTFTSDVSSYMERQAIDEFIAWLLGGGAAAGGSGSTASSGSGSATGGGGAATHTCPPCPAPEF
850 nM	0.12 nM	IP204: isolated polypeptide named in b21; sequence stands in a table not shown here (protein, /note=“Description of Artificial Sequence Synthetic Peptide-linker-hinge polypeptide”) HGEGTFISDYSIAMDKIHQQDFVNWLLAQKAAAGGSGSTASSGSGSATGGGGAATHTCPPCPAPEF
